The values below are quoted from earlier work in PMC3907174.

The term Kd denotes the concentration at which binding is half-saturated.

The target of this series is RBP (Homo sapiens) (UniProt P02753).

Consider STRA6 (from UniProt Q9BX79), for which the equilibrium dissociation constant (Kd) was 50 nM.
